The values below come from the DeepSol protein solubility set.

The data set in a line: soluble on expression in E. coli; label from the status in PepcDB or PDB records.
“MGSDKIHHHHHHMTPSMVEDVRIEQLWIPDSLDGPDSADFLAAVEVGRKVRMQTWGSDDLAYTPLEKLLEFADPYERQVILVARVEGNIVGTVDIALPLADNLDLAEFTLDILPEFQRQGVGRQLLEAAEQFARAEGRSMILIDTNHPGVSLSSSADDQLVPGSGLGFVPMGSREVEFARKTGYTLQHIEQFSSCLLPLDTKLVAELSDEAEQANAGRYRLHHWTDRCPDIWLEGVAALENQAGGDTEPSTRTDEQMVFDGAMIRKAEDATIAQGRRTVVTAVEHIATGTLVGLTTISVLSQRQDVVFQDDTVVMQEHRGNKLGLLIKVANMVRLTEQFPDARVIYTWNAPENRYLLKVNQQLGFNTAGVTGIWQKDLPDLGPSSS”: the “soluble on expression in E. coli” value is “not soluble”.

Regarding “MSDYQMFEVQVSQVEPLTEQVKRFTLVATDGKPLPAFTGGSHVIVQMSDGDNQYSNAYSLLSSPHDTSCYQIAVRLEENSRGGSRFLHQQVKVGDRLTISTPNNLFALIPSARKHLFIAGGIGITPFLSHMAELQHSDVDWQLHYCSRNPESCAFRDELVQHPQAEKVHLHHSSTGTRLELARLLADIEPGTHVYTCGPEALIEAVRSEAARLDIAADTLHFEQFAIEDKTGDAFTLVLARSGKEFVVPEEMTILQVIENNKAAKVECLCREGVCGTCETAILEGEADHRDQYFSDEERASQQSMLICSRAKGKRLVLDL”, the “soluble on expression in E. coli” value is given as “soluble”.

For the sequence “MKTEEMKFINESEFKKLKHYFEQKNTTSSLVLLVALTTGGRFSEIAKLKREDLDIKNNKIHLRGTKTETSDRIISIDTVTMKRIQSFIDSRPTNISGYIFTVDGKTITNAAVNKVLRKACANLNIKEITIHSLRHSFCSILIHHGFSILYISKHLGHSNPATTQSIYSHLLEHHHHHH”, the “soluble on expression in E. coli” value is “soluble”.

As to “MSLKISSMFTPIRIGSMTVPNRFVVPPMGNNFANTDGTLSETSKAYYLERALGGFGLITIESSVVDKKAKGGPRKPCLYDDSTIDSFKNVIDACHDAGSKVSIQLQHAGSEGNEKVAGHPLKAASAIPASNGRNTPLAITTEEIYELIESYGDAALRAQKAGADAVEVHCAHGYLVSSFISQRTNKRVDEFGGCFENRMRLPRLIIENIRKKVGNSLAILCRINSTDDVPGGIDVHDSSVIAAYLEDCGIDGLHVSRSIHIHDEYMWAPTTLHAGFSAELVTEIKKAVSIPVITVGRYTEPQFAELMVRQGRCDLVAFGRQSLADPEMPNKAKNGKLDEMIPCIACLQGCVPNMFQGKPIACLANPILGHEAELKPAEISKEVLVVGGGVGGMLAAWVCAKRGHNVTLVEKSEVLGGQMRLAAYPPGKGDITNLVRSYISKCNQYGVKICTNTEATVELIKEKSPDVVIIATGATPLVLPIPGINDSGLIHAVDLLDGKKSCGKKVLVVGGGMVGCEVAAFLGEQEHEVTVIELREEVGADVISEHRKFLMNDFENYNIHTITGAKVSKFYDDGVDYLLTDGTEHDLKGFDSVVLAMGSRNYDPLSEVIKEVVKETYIVGDAVKARRALDATKEAFEVALNIEGHHHHHH”, the “soluble on expression in E. coli” value is listed as “soluble”.

Regarding “MTEIKYKVITKDAFALPYTIIKAKNQPTKGVIVYIHGGGLMFGKANDLSPQYIDILTEHYDLIQLSYRLLPEVSLDCIIEDVYASFDAIQSQYSNCPIFTFGRSSGAYLSLLIARDRDIDGVIDFYGYSRINTEPFKTTNSYYAKIAQSINETMIAQLTSPTPVVQDQIAQRFLIYVYARGTGKWINMINIADYTDSKYNIAPDELKTLPPVFIAHCNGDYDVPVEESEHIMNHVPHSTFERVNKNEHDFDRRPNDEAITIYRKVVDFLNAITMV”, the “soluble on expression in E. coli” value is recorded as “soluble”.

For “MVLLIIRGDSYEKIKNAIADVHRHAKLTILGKPRIMVPEAADEILEHIVGNIKKPCKKACLVRIEENAPRAIDRIRKIHPPAHIVIVSERHEPYFYLLEDLPKMPLLKGYYKSKSLDSDEEIEESH”, the “soluble on expression in E. coli” value was “not soluble”.

With “MYTLLLVDDEERMLDLLELYLAPNGYRCVKRRSGAEAIDYLRRHHADLVLLDVMMPELDGWETCRRIRSFSNVPIMMVTARDETADIVQGLKIGADDYVTKPFDEAELLARIEAVLRRTAGGRSAIRAAGLVWDEEEHTVRYEDKPIALTPKEFAILGLLLKHPNQVFSRGQIIASLWGYLADTEERTVDSHMKNIREKLRKAGFPADEYLQTVWGVGYKWEGRKS”, the “soluble on expression in E. coli” value is “soluble”.

“MGSDKIHHHHHHMQVTEQMKLDLARDGAFVARGLFSPEGLKRMREAFDYGIEHPSPQHGYIFKGTPDEHFNDYGNIANRDVHIATIKALVLDEFVASLWDSQHVWFKGEEIFIKKGGKAGRSPWHQDNSYTPVSGPQMLNIWTCFERIPRKNALEVVRGSHLGIQYNGNSYTDPGKPTKPLWLNTDWPDLPDIEAERAKDPNSWDVLSWDLELGDALVFHSGALHGGAPVSADCPDRHTLVYRFFGDKLFYRPLPTGGCNYPYDISALNDPSLMPGEPFRAAWCTQLR”: the “soluble on expression in E. coli” value is listed as “not soluble”.

In the case of “MGSDKIHHHHHHMSIPIIDLSQFQISNQVRRQNVVKNIYQACHEIGFMYIQNSGISPDLLEQVFSASKSFFDSPLAVKEQLAWNNEFINTGYVGLEREHLNPNQPGDLKEAFNIKNDIIINNFSSPILLTNNPVISTFYNACTELANTVLQAFALALELPEYFFTTRHNQKNHTLRLLHYPPLQTSPKPGQVRAGEHSDYGSLTLLFQHAVGGLEVQTTRKEWIAAPLIPGMVLVNTGDLMQRWTNHIFCSTKHRVMIPNDERVKKSRYSIAFFCHPNDDTEIACLESCSQRQSPIYPPILAGEYLLSSLQLTY”, the “soluble on expression in E. coli” value is on record as “not soluble”.

For “MIQLIATPSNALVDEPVSIRATGLPPSQIVTIKATVKDENDNVFQSQAFYKTNEAGEVDLEKTPALGGDYVGVHPMGLFFSLKPKKAFHRLMKKDVMNSPLCICLDLYDSVNWLETVRIPSKASQRVQRWFVGPGVKREQIQEGRVRGALFLPPVEFRASLLASHGFAVLALAYFAYEDLPEKPQEVDLEYFEEAANFLLSHPKIQQPGIGVISTSKGAEIGLAMACYLKQVIATVCINGPTTITIFPLRYQDLVMTPIHPALERIQVHDSGALLFRYTTQYLHNKLNSQNILPVEKAQGKILFIVGENDECLDSKLHAQKAMDRLQRHGRSSGRMLAYPGAGHLIEPPYSPVCFVAWFPVLGQPMCFGGDLMAHAAAQEHSWREIQKFFRKHLLQSGSKL”, the “soluble on expression in E. coli” value is reported as “not soluble”.

Consider “ADILLLDNIDSFTWNLADQLRTNGHNVVIYRNHIPAQTLIDRLATMKNPVLMLSPGPGVPSEAGCMPELLTRLRGKLPIIGICLGHQAIVEAYGGYVGQAGEILHGKATSIEHDGQAMFAGLANPLPVARYHSLVGSNVPAGLTINAHFNGMVMAVRHDADRVCGFQFHPESILTTQGARLLEQTLAWAQQK”, for which the “soluble on expression in E. coli” value is listed as “soluble”.

On to “MAHHHHHHMSGRLRLYKEKLEGYNRFYSIVKTIKMVTMAKFRQAQVRIKTRDYTLRYTEKAFSKPGQLVGDSPQAKAIYIPVMTNRGSCGALNSNVVKVIDSVASSRAYLMPLGKRGIESLSKLYPSSFRMGIVNDMHEPMHFAYATYVWENAQQLCPEADRVHVIFHRCVSAGSQKQCYYNIPSYEKWREDLADASSTENQKSRYLFANTLLNEDEQMIRDFYDFHATLAILNAVCENELSEQAARLVAVEGQLSNISTLQQKTSSLYNKTRQSSITSSLIEIISAMTSLEGNAAKGVQRTNFWEGARMK”, for which the “soluble on expression in E. coli” value is “not soluble”.

For the sequence “FDASNFKDFSSIASASSSWQNQSGSTMIIQVDSFGNVSGQYVNRAQGTGCQNSPYPLTGRVNGTFIAFSVGWNNSTENCNSATGWTGYAQVNGNNTEIVTSWNLAYEGGSGPAIEQGQDTFQYVPTTENKSLLKD”, the “soluble on expression in E. coli” value is on record as “soluble”.

Regarding “ASKPVEPAKPAEPTKVEFEEKQGKRGVKLGTVAIILSIIFGGGLAYKLHEQQADYQAQIAQLQNQLEKAQASMKQELNQVKEETIEKATTVTHKAEVVLGQQQKSIESLQLAVADVKGRRPNDWLLAEADYLVKLAGRKLFLEHDVESATQLMESADQRIAALNDPSLVKLRKAMANDITKLRTVPLIDRDGLVLRLTALQQQVDKLPLANALLPEAQVVAQHEVSEDISNWQDNLMTSLKDFSENFITFRTRDGNVIPLLSPEQHFYLKENIKAKLETAIKAVYQEQGEIYTTSLTTADKWAMAFFNQDDNAVKEFNKALNQLSQQNIQVEYPAKLESQSQLSDVIRERLRREVTTMTGTGDK”, the “soluble on expression in E. coli” value is on record as “not soluble”.

In the case of “MGSDKIHHHHHHMIIHEITEECFKKYGKVIDSIDLTELVSTMQTVEIPADVVYEPSISALEKLKCATELQQKTYGELPIQIGWCIGNNHKLNAVEYHRCSEVNIAATDAILILGRQQDISVENTYDTSLMEAFRIPSGTAVELYATTLHYAPCNASAGGFLVAVVLPKGTNEALEHPHTGGEDALLAAKNKWLIGHPEGGLPDGSYIGLTGENLEIK”, the “soluble on expression in E. coli” value is given as “not soluble”.

As for “MTVITEPARQTPVIHNTDVLVVGSGPGGLAAALAAARAGVDVCLVERFGCFGGNITVVGVEGFAWYRHEATVEAGGIGREFEDRAREMGAAVPESQSLSYEIDSEGFKLVADRLVEEAGVHGMLHRQFVAPVMEGDRVAGIIVESKAGREAILARVVIDATGDADVAHRAGAPTLKTPAEHMQAASVMFHLAGVDKAAFMAEVRRDPQTYKDWSTGEWTVETDGKEDDMFSPFLKKPFAKAIEEGVIPPHLNTIAGTWGAMHDTGELTYMNLVHLAGVDGTDPDSLTQGEIEGRRQAMLAIEALRRFMPGCGGVRLRNFGMTIGIRDTRKIRAAYDMTETDVRQQGRFDDSIGIYPEFIDGYGVLIIPTTGRYMQIPYRAVLPGKVKGLLVAGRAIGGDRIAHAATRNMACCAVAGQGAGVAAALAVKTGCDVAQVDMAGVQAELLRQGVRIALEHHHHHH”, the “soluble on expression in E. coli” value is recorded as “not soluble”.

Regarding “MGHHHHHHSHMKYGNPNYGGMKGILSNSWKRRYHSRRIQRDVIKKRALIGDDVGLTSYKHRHSGLVNVPEEPIEEEEEEEEEEEEEEEEDQDMDADDRVVVEYHEELPALKQPRERSASRRSSASSSDSDEMDYDLELKMISTPSPKKSMKMTMYADEVESQLKNIRNSMRADSVSSSNIKNRIGNKLPPEKFADVRHLLDEKRQHSRPRPPVSSTKSDIRQRLGKRPHSPEKAFSSNPVVRREPSSDVHSRLGVPRQDSKGLYADTREKKSGNLWTRLGSAPKTKEKNTKKVDHRAPGAEEDDSELQRAWGALIKEKEQSRQKKSRLDNLPSLQIEVSRESSSGSEAES”, the “soluble on expression in E. coli” value is “not soluble”.
